Measured values: the supplement of paper PMC6757056
± gives the standard deviation of the averaged measurements.

B1: library; a variant is named by its letters at N, in order (parent)
chain: GCUGUCACCGGUGCUUGGUACGUUAUAUUCAGCCGGUCUGAUGAGUCUNNNNNNAGACGAAACAGC

Columns and labels:
(6R,S)-folinic acid [1] = variants of: B1; experiment: normalized RNA/DNA level without ligand (relative to sTRSVctl = 100) (log10 (% of sTRSVctl)); HEK293T overexpressing SLC46A1; higher = less ribozyme self-cleavage, higher mRNA level; conditions: without (6R,S)-folinic acid; ligand present: no
Summary of the method: (§1)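 Ribozyme switch library plasmids linked to reporters were introduced into HEK293T cells at 4 µg per 6-well well, with ligand, if any, added 1 h before. Total RNA was extracted with EDTA 72 h later, reverse-transcribed, amplified, barcoded and sequenced. RNA level was computed from RNA over DNA reads relative to a spiked-in non-cleaving sequence or the top sequences, then scaled and log-transformed. The top set was 25 sequences, values were ×100 and log10, and the cutoff was ≥100 DNA reads.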

(6R,S)-folinic acid [2] = variants of: B1; experiment: normalized RNA/DNA level with ligand (relative to sTRSVctl = 100) (log10 (% of sTRSVctl)); HEK293T overexpressing SLC46A1; ligand concentration (+) RNA-Seq: 6 mM; higher = less ribozyme self-cleavage, higher mRNA level; conditions: with (6R,S)-folinic acid; ligand present: yes
Summary of the method: as §1

Variant	normalized RNA/DNA level without ligand (log10) ((6R,S)-folinic acid [1])	normalized RNA/DNA level with ligand (log10) ((6R,S)-folinic acid [2])
GCUGUCACCGGUGCUUGGUACGUUAUAUUCAGCCGGUCUGAUGAGUCUUGACUAAGACGAAACAGC	1.963 ± 0.0017	2.0143 ± 0.0019
GCUGUCACCGGUGCUUGGUACGUUAUAUUCAGCCGGUCUGAUGAGUCUCUGAUGAGACGAAACAGC	2.014 ± 0.013	2.013 ± 0.014
GCUGUCACCGGUGCUUGGUACGUUAUAUUCAGCCGGUCUGAUGAGUCUACUGCGAGACGAAACAGC	1.902 ± 0.011	2.013 ± 0.013
GCUGUCACCGGUGCUUGGUACGUUAUAUUCAGCCGGUCUGAUGAGUCUUCUGGUAGACGAAACAGC	1.9654 ± 0.0015	2.02 ± 0.032
GCUGUCACCGGUGCUUGGUACGUUAUAUUCAGCCGGUCUGAUGAGUCUCGACAUAGACGAAACAGC	2.006 ± 0.006	2.02 ± 0.044
GCUGUCACCGGUGCUUGGUACGUUAUAUUCAGCCGGUCUGAUGAGUCUAGCUCAAGACGAAACAGC	2.07 ± 0.026	2.01 ± 0.04
GCUGUCACCGGUGCUUGGUACGUUAUAUUCAGCCGGUCUGAUGAGUCUAGUUUGAGACGAAACAGC	1.958 ± 0.0094	2.023 ± 0.017
GCUGUCACCGGUGCUUGGUACGUUAUAUUCAGCCGGUCUGAUGAGUCUUUACUUAGACGAAACAGC	1.991 ± 0.0083	1.994 ± 0.019
GCUGUCACCGGUGCUUGGUACGUUAUAUUCAGCCGGUCUGAUGAGUCUUCCACCAGACGAAACAGC	2.018 ± 0.017	2.03 ± 0.022
GCUGUCACCGGUGCUUGGUACGUUAUAUUCAGCCGGUCUGAUGAGUCUCACCUGAGACGAAACAGC	2.04 ± 0.023	2.02 ± 0.022
GCUGUCACCGGUGCUUGGUACGUUAUAUUCAGCCGGUCUGAUGAGUCUUUUGCCAGACGAAACAGC	2.001 ± 0.004	2.04 ± 0.037
GCUGUCACCGGUGCUUGGUACGUUAUAUUCAGCCGGUCUGAUGAGUCUCGCGGCAGACGAAACAGC	2.11 ± 0.023	2.13 ± 0.047
GCUGUCACCGGUGCUUGGUACGUUAUAUUCAGCCGGUCUGAUGAGUCUCUCCGUAGACGAAACAGC	2.042 ± 0.018	2.06 ± 0.044
GCUGUCACCGGUGCUUGGUACGUUAUAUUCAGCCGGUCUGAUGAGUCUGUUCCCAGACGAAACAGC	2.075 ± 0.018	2.052 ± 0.017
GCUGUCACCGGUGCUUGGUACGUUAUAUUCAGCCGGUCUGAUGAGUCUCCCGCAAGACGAAACAGC	2.06 ± 0.035	2.071 ± 0.02
GCUGUCACCGGUGCUUGGUACGUUAUAUUCAGCCGGUCUGAUGAGUCUGAGAAUAGACGAAACAGC	1.973 ± 0.0097	2.02 ± 0.051
GCUGUCACCGGUGCUUGGUACGUUAUAUUCAGCCGGUCUGAUGAGUCUGUUCUUAGACGAAACAGC	2.0414 ± 0.0017	2.04 ± 0.028
GCUGUCACCGGUGCUUGGUACGUUAUAUUCAGCCGGUCUGAUGAGUCUUACCCCAGACGAAACAGC	2.03 ± 0.024	2.022 ± 0.017
GCUGUCACCGGUGCUUGGUACGUUAUAUUCAGCCGGUCUGAUGAGUCUGCCGGGAGACGAAACAGC	2.086 ± 0.015	2.045 ± 0.003
GCUGUCACCGGUGCUUGGUACGUUAUAUUCAGCCGGUCUGAUGAGUCUAAGAGCAGACGAAACAGC	1.984 ± 0.0028	1.99 ± 0.044
GCUGUCACCGGUGCUUGGUACGUUAUAUUCAGCCGGUCUGAUGAGUCUCAGCCAAGACGAAACAGC	1.9832 ± 0.0011	2.01 ± 0.063

Variant	normalized RNA/DNA level without ligand (log10) ((6R,S)-folinic acid [1])	normalized RNA/DNA level with ligand (log10) ((6R,S)-folinic acid [2])
GCUGUCACCGGUGCUUGGUACGUUAUAUUCAGCCGGUCUGAUGAGUCUCUAAUUAGACGAAACAGC	2.011 ± 0.01	2.02 ± 0.061
GCUGUCACCGGUGCUUGGUACGUUAUAUUCAGCCGGUCUGAUGAGUCUUCUAGAAGACGAAACAGC	2.05 ± 0.024	2.043 ± 0.0037
GCUGUCACCGGUGCUUGGUACGUUAUAUUCAGCCGGUCUGAUGAGUCUCAGUCCAGACGAAACAGC	2.051 ± 0.011	2.04 ± 0.037
GCUGUCACCGGUGCUUGGUACGUUAUAUUCAGCCGGUCUGAUGAGUCUGUAUGGAGACGAAACAGC	1.921 ± 0.015	2.02 ± 0.035
GCUGUCACCGGUGCUUGGUACGUUAUAUUCAGCCGGUCUGAUGAGUCUUGGUCUAGACGAAACAGC	1.994 ± 0.015	2.0325 ± 0.0019
GCUGUCACCGGUGCUUGGUACGUUAUAUUCAGCCGGUCUGAUGAGUCUUACGCCAGACGAAACAGC	2.053 ± 0.0091	2.07 ± 0.022
GCUGUCACCGGUGCUUGGUACGUUAUAUUCAGCCGGUCUGAUGAGUCUCAAUAUAGACGAAACAGC	1.95 ± 0.025	2 ± 0.033
GCUGUCACCGGUGCUUGGUACGUUAUAUUCAGCCGGUCUGAUGAGUCUGUAGCGAGACGAAACAGC	1.93 ± 0.023	2.01 ± 0.036
GCUGUCACCGGUGCUUGGUACGUUAUAUUCAGCCGGUCUGAUGAGUCUCAGGGUAGACGAAACAGC	1.974 ± 0.014	2 ± 0.031
GCUGUCACCGGUGCUUGGUACGUUAUAUUCAGCCGGUCUGAUGAGUCUCUGCAAAGACGAAACAGC	2.037 ± 0.02	2.05 ± 0.025
GCUGUCACCGGUGCUUGGUACGUUAUAUUCAGCCGGUCUGAUGAGUCUCUUCGAAGACGAAACAGC	2.053 ± 0.0024	2.06 ± 0.038
GCUGUCACCGGUGCUUGGUACGUUAUAUUCAGCCGGUCUGAUGAGUCUUAAGACAGACGAAACAGC	1.984 ± 0.00031	2.01 ± 0.034
GCUGUCACCGGUGCUUGGUACGUUAUAUUCAGCCGGUCUGAUGAGUCUCGGCGGAGACGAAACAGC	1.968 ± 0.0051	2.04 ± 0.041
GCUGUCACCGGUGCUUGGUACGUUAUAUUCAGCCGGUCUGAUGAGUCUGUGCACAGACGAAACAGC	1.935 ± 0.0098	2 ± 0.0049
GCUGUCACCGGUGCUUGGUACGUUAUAUUCAGCCGGUCUGAUGAGUCUGCAUUCAGACGAAACAGC	2.03 ± 0.052	2.023 ± 0.0067
GCUGUCACCGGUGCUUGGUACGUUAUAUUCAGCCGGUCUGAUGAGUCUGACUUUAGACGAAACAGC	1.9897 ± 4.9e-05	1.97 ± 0.037
GCUGUCACCGGUGCUUGGUACGUUAUAUUCAGCCGGUCUGAUGAGUCUCGACCAAGACGAAACAGC	2.079 ± 0.0068	2.03 ± 0.034
GCUGUCACCGGUGCUUGGUACGUUAUAUUCAGCCGGUCUGAUGAGUCUAAUUCUAGACGAAACAGC	2.0312 ± 0.0016	2.03 ± 0.027
GCUGUCACCGGUGCUUGGUACGUUAUAUUCAGCCGGUCUGAUGAGUCUCGUCUUAGACGAAACAGC	2.021 ± 0.0084	2 ± 0.039
GCUGUCACCGGUGCUUGGUACGUUAUAUUCAGCCGGUCUGAUGAGUCUCUGACUAGACGAAACAGC	2.028 ± 0.004	2 ± 0.023
